For orientation: Kd means the free concentration of one partner at which half of the binding sites on the other are occupied at equilibrium, for simple one-to-one binding. The stoichiometry N is a count of units in the complex or per binding partner.

The target in data set [1] is Pcdhα7 EC1-5 (Mus musculus) (UniProt Q91Y13). The note with it: cited from earlier work.
The data set “AUC” concerns the molecule itself. As to the kind of experiment: AUC.

For Pcdhα7 EC1-5 (from UniProt Q91Y13), the Kd in data set [1] was 2910 nM.

B1: Pcdh α7 EC1–5 (mouse clustered protocadherin α7, extracellular cadherin domains 1–5) (domain or fragment)
chain: QLHYSVPEEAKHGTFVGRIAQDLGLELTELVPRLFRVASKDRGDLLEVNLQNGILFVNSRIDREELCGRSAECSIHLEVIVDRPLQVFHVEVEVKDINDNPPMFPATQKALFILESRLLDSRFPLEGASDADVGSNALLTYRLSTNEHFSLDVPPNHEQVKPLGLVLRKPLDREEAAEIRLLLTATDGGKPELTGTVQLLITVLDVNDNAPVFDRSLYTVKLPENVPNGTLVIKVNASDLDEGVNGDVMYSFSSDVSSDIKSKFHMDTVSGEITVIGIIDFEESKAYKIPLEARDKGFPQLPGHCTILVEVVDANDNAPQLTVSSLSLPVSEDSQPGRVVTLISVFDRDSGANGQVTCSLTPHIPFKLVSTFKNYYSLVLDSALDRETIANYDVIVTARDGGSPSLWATASVSVEVADVNDNAPLFAQPEYTVFVKENNPPGAHIFTVSAMDADAQENALVSYSLVERRVGERLLSSYVSVHAESGKVFALQPLDHEELELLQFQVSARDAGVPALGSNVTLQVFVLDEND
modifications: N- and O-linked glycans; O-mannose at positions 194 and 196 (EC2), T409 (EC4) and S449 (EC5)
Turning to B1, the “stoichiometry N” value in “AUC” was 2.

B2: Pcdh β8 EC1–4 (mouse clustered protocadherin β8, extracellular cadherin domains 1–4) (domain or fragment)
chain: EAISYSMPEETESGYLVANLAQDLGLRVGELTTRGARIHHNGNKELLQLDAERGNLLLKEKPDREALCGATEPCVLHFQIILENPVQFFQTDLQFTDINDHFPEFPDTEMLLKIQEIAQPGTVFPLKAAQDPDIGSNAVQNYTVSPNLHFHVVTLSRSDDRKYPELVLDRALDREEQPELTLILTALDGGAPPKSGTTTVRIEVVDINDNAPQFLQSLYAVEVPENSPLNALVVTVSARDLDAGIHGNVAYSLFQGGGGPQPFVIDEITGEIRLKGALDFEATSYYTMEIVATDSGGLSGKCTVAIQVLDVNDNAPKLTISSLTSSIPENAPEAVVAVFSVSDPDSGDNGRMVCSIQNGLPFLLKPTFKNFYTLVTERPLDRESNAEYNITITVSDLGTPRLTTQHTITVQVSDINDN
modifications: N- and O-linked glycans; O-mannose at positions 194 and 196 (α7 numbering) of EC2 and on T199
Regarding B2, in “AUC”, the Kd was found to be 24 ± 0.43 µM and the “stoichiometry N” value worked out at 2.

B3: Pcdh α4 EC1–4 (mouse clustered protocadherin α4, extracellular cadherin domains 1–4) (domain or fragment)
chain: QIHYSIPEEAKHGTFVGRIAQDLGLELTELVPRLFRVASKDRGDLLEVNLQNGILFVNSRIDREELCGRSAECSIHLEVIVDRPLQVFHVEVEVRDINDNPPRFPTTQKNLFIAESRPLDTWFPLEGASDADIGINAVLTYRLSPNDYFSLEKPSNDERVKGLGLVLRKSLDREETPEIILVLTVTDGGKPELTGSVQLLITVLDANDNAPVFDRSLYTVKLPENVPNGTLVVKVNASDLDEGVNGDIMYSFSTDISPNVKYKFHIDPVSGEIIVKGYIDFEECKSYEILIEGIDKGQLPLSGHCKVIVQVEDINDNVPELEFKSLSLPIRENSPVGTVIALISVSDRDTGVNGQVTCSLTSHVPFKLVSTFKNYYSLVLDSALDRETTADYKVVVTARDGGSPSLWATASVSVEVADVND
modifications: N- and O-linked glycans; O-mannose on T409, S411 and S413 (EC4)
On to B3, for which, in “AUC”, the Kd is 0.037 ± 0.0082 µM and the “stoichiometry N” value is 2.

B4: Pcdh β6 EC1–4 (mouse clustered protocadherin β6, extracellular cadherin domains 1–4) (domain or fragment)
chain: EAIRYSIPEETESGYLVAHLAKDLGFRVGELATRRARIHHRGNKELLQLDVETGNLLLKEKPDREALCGATEPCVLHFQIILENPVQFFQTELQLTDINDHSPEFPDTEMLLKIQESTQPATVFLLKAAQDSDIGSNAVQNYTVSPNLHFHVVTLSRSDGRKYPELVLDRALDREEQPELTLILTALDGGAPPKSGTTTVRIEVVDINDNAPEFVQSLYSVEVPENSPLDALVVTVSARDLDAGIHGNVAYSLFQGGGGPQPFVIDEITGEIRLKGALDFEATSYYTMEIVATDSGGLSGKCTVAIQVLDVNDNAPKLTISSLTSSIPENAPEAVVAVFSVSDPDSGDNGRMVCSIQNELPFLLKPTFENYYTLAAEGPLDREIREEYNITIIVSDLGTPRLTTQHTITVQVVDIND
modifications: N- and O-linked glycans; O-mannose at positions 194 and 196 (α7 numbering) of EC2
Take B4: in “AUC”, the Kd turned out to be 16.3 ± 2.08 µM and the “stoichiometry N” value came to 2.

The record behind these values is publication PMC4873334 (Neuron, 2016).
